Reference: the RNAGym collection of RNA variant scans (doi:10.1093/molbev/msab373)

B1: Azoarcus group I ribozyme (parent)
chain: GUGCCUUGCGCCGGGAAACCACGCAAGGGAUGGUGUCAAAUUCGGCGAAACCUAAGCGCCCGCCCGGGCGUAUGGCAACGCCGAGCCAAGCUUCGGCGCCUGCGCCGAUGAAGGUGUAGAGACUAGACGGCACCCACCUAAGGCAAACGCUAUGGUGAAGGCAUAGUCCAGGGAGUGGCGAAAGUCACACAAACCGG

Variants of: B1
Test: reverse-splicing fitness (ratio to wild type); higher = more active; in vitro selection; Mg2+ level not given
In short: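 An in vitro group I ribozyme library with randomized positions was T7-transcribed and gel-purified. In triplicate, 10 pmol RNA in EPPS pH 7.5 was reacted with 50 pmoles of a 30-nt RNA substrate for 1 h at 37 °C across several added MgCl2 levels (1–48 mM), then stopped with EDTA. Products were reverse transcribed from a substrate-complementary primer, PCR-amplified and sequenced (HiSeq 4000). Fitness is a variant's read proportion after selection over that before, normalised to wild type.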

Row | Variant | reverse-splicing fitness
1 | GUGCCUUGCGCCGGGAAACCACGCAAGGGAUGGUGUCAAAUUCGGCGAAACCUAAGCGCCCGCCCGGGCGUAUGGCAACGCCGAGCCAAGCUUCGGCGCCUGCGCCGAUGGAGGUGUAGUGACUAGACGGCACCCACCUAAGGCGAACGAUAUGGUGAAGGCAUAGUCAAGGGAGUGGCGAAAGUCACACAAACCGG [A111G A120U A145G C150A C169A] | 0.00596
2 | GUGCCUUGCGCCGGGAAACCACGCAAGGGAUGGUGUCAAAUUCGGCGAAACCUAAGCGCCCGCCCGGGCGUAUGGCAACGCCGAGCCAAGCUUCGGCGCCUGCGCCGAUGGAGGUGUAGUGACUAGACGGCACCCACCUAAGGCGAACGAUAUGGUGAAGGCAUAGUCAAGGGAGAGGCGAAAGUCACACAAACCGG [A111G A120U A145G C150A C169A U176A] | 0.00539
3 | GUGCCUUGCGCCGGGAAACCACGCAAGGGAUGGUGUCAAAUUCGGCGAAACCUAAGCGCCCGCCCGGGCGUAUGGCAACGCCGAGCCAAGCUUCGGCGCCUGCGCCGAUGGAGGUGUAGUGACUAGACGGCACCCACCUAAGGCGAACGAUAUGGUGAAGGCAUAGUCAAGGGAGCGGCGAAAGUCACACAAACCGG [A111G A120U A145G C150A C169A U176C] | 0.00368
4 | GUGCCUUGCGCCGGGAAACCACGCAAGGGAUGGUGUCAAAUUCGGCGAAACCUAAGCGCCCGCCCGGGCGUAUGGCAACGCCGAGCCAAGCUUCGGCGCCUGCGCCGAUGGAGGUGUAGUGACUAGACGGCACCCACCUAAGGCGAACGAUAUGGUGAAGGCAUAGUCAAGGGAGGGGCGAAAGUCACACAAACCGG [A111G A120U A145G C150A C169A U176G] | 0.00273
5 | GUGCCUUGCGCCGGGAAACCACGCAAGGGAUGGUGUCAAAUUCGGCGAAACCUAAGCGCCCGCCCGGGCGUAUGGCAACGCCGAGCCAAGCUUCGGCGCCUGCGCCGAUGGAGGUGUAGUGACUAGACGGCACCCACCUAAGGCGAACGAUAUGGUGAAGGCAUAGUCGAGGGAGUGGCGAAAGUCACACAAACCGG [A111G A120U A145G C150A C169G] | 0.0141
6 | GUGCCUUGCGCCGGGAAACCACGCAAGGGAUGGUGUCAAAUUCGGCGAAACCUAAGCGCCCGCCCGGGCGUAUGGCAACGCCGAGCCAAGCUUCGGCGCCUGCGCCGAUGGAGGUGUAGUGACUAGACGGCACCCACCUAAGGCGAACGAUAUGGUGAAGGCAUAGUCGAGGGAGAGGCGAAAGUCACACAAACCGG [A111G A120U A145G C150A C169G U176A] | 0.0104
7 | GUGCCUUGCGCCGGGAAACCACGCAAGGGAUGGUGUCAAAUUCGGCGAAACCUAAGCGCCCGCCCGGGCGUAUGGCAACGCCGAGCCAAGCUUCGGCGCCUGCGCCGAUGGAGGUGUAGUGACUAGACGGCACCCACCUAAGGCGAACGAUAUGGUGAAGGCAUAGUCGAGGGAGCGGCGAAAGUCACACAAACCGG [A111G A120U A145G C150A C169G U176C] | 0.00584
8 | GUGCCUUGCGCCGGGAAACCACGCAAGGGAUGGUGUCAAAUUCGGCGAAACCUAAGCGCCCGCCCGGGCGUAUGGCAACGCCGAGCCAAGCUUCGGCGCCUGCGCCGAUGGAGGUGUAGUGACUAGACGGCACCCACCUAAGGCGAACGAUAUGGUGAAGGCAUAGUCGAGGGAGGGGCGAAAGUCACACAAACCGG [A111G A120U A145G C150A C169G U176G] | 0.00256
9 | GUGCCUUGCGCCGGGAAACCACGCAAGGGAUGGUGUCAAAUUCGGCGAAACCUAAGCGCCCGCCCGGGCGUAUGGCAACGCCGAGCCAAGCUUCGGCGCCUGCGCCGAUGGAGGUGUAGUGACUAGACGGCACCCACCUAAGGCGAACGAUAUGGUGAAGGCAUAGUCUAGGGAGUGGCGAAAGUCACACAAACCGG [A111G A120U A145G C150A C169U] | 0.0188
10 | GUGCCUUGCGCCGGGAAACCACGCAAGGGAUGGUGUCAAAUUCGGCGAAACCUAAGCGCCCGCCCGGGCGUAUGGCAACGCCGAGCCAAGCUUCGGCGCCUGCGCCGAUGGAGGUGUAGUGACUAGACGGCACCCACCUAAGGCGAACGAUAUGGUGAAGGCAUAGUCUAGGGAGAGGCGAAAGUCACACAAACCGG [A111G A120U A145G C150A C169U U176A] | 0.00579
11 | GUGCCUUGCGCCGGGAAACCACGCAAGGGAUGGUGUCAAAUUCGGCGAAACCUAAGCGCCCGCCCGGGCGUAUGGCAACGCCGAGCCAAGCUUCGGCGCCUGCGCCGAUGGAGGUGUAGUGACUAGACGGCACCCACCUAAGGCGAACGAUAUGGUGAAGGCAUAGUCUAGGGAGCGGCGAAAGUCACACAAACCGG [A111G A120U A145G C150A C169U U176C] | 0.00673
12 | GUGCCUUGCGCCGGGAAACCACGCAAGGGAUGGUGUCAAAUUCGGCGAAACCUAAGCGCCCGCCCGGGCGUAUGGCAACGCCGAGCCAAGCUUCGGCGCCUGCGCCGAUGGAGGUGUAGUGACUAGACGGCACCCACCUAAGGCGAACGAUAUGGUGAAGGCAUAGUCUAGGGAGGGGCGAAAGUCACACAAACCGG [A111G A120U A145G C150A C169U U176G] | 0.00242
13 | GUGCCUUGCGCCGGGAAACCACGCAAGGGAUGGUGUCAAAUUCGGCGAAACCUAAGCGCCCGCCCGGGCGUAUGGCAACGCCGAGCCAAGCUUCGGCGCCUGCGCCGAUGGAGGUGUAGUGACUAGACGGCACCCACCUAAGGCGAACGAUAUGGUGAAGGCAUAGUCCAGGGAGAGGCGAAAGUCACACAAACCGG [A111G A120U A145G C150A U176A] | 0.0506
14 | GUGCCUUGCGCCGGGAAACCACGCAAGGGAUGGUGUCAAAUUCGGCGAAACCUAAGCGCCCGCCCGGGCGUAUGGCAACGCCGAGCCAAGCUUCGGCGCCUGCGCCGAUGGAGGUGUAGUGACUAGACGGCACCCACCUAAGGCGAACGAUAUGGUGAAGGCAUAGUCCAGGGAGCGGCGAAAGUCACACAAACCGG [A111G A120U A145G C150A U176C] | 0.0581
15 | GUGCCUUGCGCCGGGAAACCACGCAAGGGAUGGUGUCAAAUUCGGCGAAACCUAAGCGCCCGCCCGGGCGUAUGGCAACGCCGAGCCAAGCUUCGGCGCCUGCGCCGAUGGAGGUGUAGUGACUAGACGGCACCCACCUAAGGCGAACGAUAUGGUGAAGGCAUAGUCCAGGGAGGGGCGAAAGUCACACAAACCGG [A111G A120U A145G C150A U176G] | 0.0119
